B1: anti-nsp9 VHH_(2nsp23) (VHH)
VHH: QVQLQESGGGLVQPGGSLRLSCAASGLAFSMYTMGWFRQAPGKEREFVAMIISSGDSTDYADSVKGRFTISRDNGKNTVYLQMDSLKPEDTAVYYCAAPKFRYYFSTSPGDFDSWGQGTQVTVSS
B2: SARS-CoV-2 nsp9 (natural protein, UniProt P0DTD1 4141-4253, looked up)
chain: NNELSPVALRQMSCAAGTTQTACTDDNALAYYNTTKGGRFVLALLSDLQDLKWARFPKSDGTGTIYTELEPPCRFVTDTPKGPKVKYLYFIKGLNNLNRGMVLGSLAATVRLQ
notes: also called nsp9_(COV19); Nsp9_(COV19)

Experiments:
SARS-CoV-2 nsp9 = target: T1, SARS-CoV-2 nsp9 (SARS-CoV-2, UniProt P0DTD1); experiment: crystal structure; settings: both partners purified
T1 construct: also called nsp9_(COV19); Nsp9_(COV19)

crystal structure = target: the molecule itself; experiment: crystal structure

Binder | binding result (SARS-CoV-2 nsp9) | binding result (crystal structure)
B1 | binds | –
B2 | – | binds
